Experiment: protease stability score; higher = more stable; yeast display proteolysis, trypsin and chymotrypsin;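 note: log10 excess protease needed over predicted unfolded state with 0 meaning unfolded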

Sequence | protease stability score
DQEENQKIAERIVKIIQTGDNEKAMKQVDKNVRIRVGEKEYHGRESAREHIREQKEQFDHATVDDMKVQGNKIVLKMRLDVNGVDMDVVIKVTVKNGTIKELHVEYRDREDQQKIES | 1.09
DDSAMRQIHDLLRHIETGNEKEVSKQMDPNARLQIGDQVYHGNEQARRAWKRERDEIRISIKRVRMDAKGDKVFIEMDLVREKDGTPDRLTMRITVQQHDGRVKDLVQEERR | 0.07
DDEVVKEVNNALKTNDFKSMVDLADKNARIRVGNKTYRGREEVERFQTILHQRADHVQFRKIHVEGDTAVVDMVVVVNGHKLKYTVKIRVHNGKITSLRMQFTDESDERVMSKVLG | 0.8
DKSMQEEMERVARENDFHRLAELADPNVKWQYGDKHLHGRTAQREFVRLNHEAVDHLEVQDVKFHGENVEIDLVMTVNGKEIKVVLQAHVHNGRIKEMRWQVTNEDEKRKLEEAVS | -0.183
DDTVQRMVDKFLENLKTGNEEDISKMADPNVSLNYGDKRIHGREQLMQWVERQEKEMRVEFQIRHVDVHGNKAHVTADMRIHNNGDPDNARVQFVVNAQGDKVKTITFHKTR | -0.14
DEDKVRKFQEYIEAYRRGDEQKLLKLMDPNVHVEIGDRRYHGHEDMEKILHKEIREIRVDVKIQSIEVRNGHITAHLVMSVNVNGHPVQMQFTVVIEMTNGKIKSIKYRVSEEQKRRFDS | 0.49
DETKVKKLAETVIKILFSGDKKTAKDLLKPNVKFEALDVELHGPDQVRKYYDKVKKHGAEMHVQRNEVKGNTAEVEYVLKVGGTEIKVKATLYVKDEKVDKAEVNNSEEYKKYVQKG | -0.018
DESNREVYQKLLNAQTKGDEETAKELADPNASVQIGDKQIHGMDQYVKQMTRDKRRARVRIRDVRVDVQGDNIRVSAHFQEDHNGKPDERTMTQSYKVENGKMKSASVHSLS | -0.124
DEEHVKKIIKKVADDLQRGDEDNLKHLMDKDVRVEIGDKEVRGKDEAAKELAKFLSRADHFQVDHVDVKGNNARIHVLVNINGRERRVTLILTMHNGRLKNVRFDPENEQTLRN | 1.18
DEEEVKRQLDQVAKALLHGDEKQAKDLADPNVSANYGDKKLHGRENFSKWVKKFRHQIDHLELKDIRVNGDRLVIEVQANVNGQDVDVVFNLKLHNGKVKHMSVEYRDEQAKRELKK | 0.49
DEDAHRLVEEFWRALKDGDSEQIKELADKDVHVQVGDTKVHGREELASQVQRERDQMSVDLKIDHVELNEDHVDVEAKMVVEHNGKPKTNKAKLDFRFHNGKLQMMRRQTRQ | -0.184
DEDEKTKLAEQAKDILQEGNFHEMMHLADENAKVVYGDRRYDGREKVHKVLRDFDDRVDKIDVKRVRVENGRAKIVADVEHDGQRTTVIIHIQAHNGKIRRIRFHTP | 0.586
DNDAMRQANTLVEILNTGDPDRFVEYVDPNVDIKIGDKSIHGREDARRWVTELKRQMHIHLSVKRVDVEGEHLNLHADQVNDENGQPDKDHVLIIMRFHNGRVKVLKQEHKS | 0.53
DEEEDKKVKHLITNIREGNSDDFIKMMDPNARLVYGDQRVKGTSQAREFVHSLHEQARIDLEVKHITAHNGRIDVTVKMELEVNGQPYRFSVNVIVHIRNGKVQEVVFQFDPRDEQRNRK | 1.24
DEEEQHKTATKILSDFHTGNPDDMRENADEDVTAQVGDKTYTGREEFHKAVKTIVDRVDHLEIKSFDFHNGQLEANFVININGKNEKKKLVMRVENGRVKHMKIDDG | -0.221
DEREAKKVVEDLKRGDWNKLMQLVDPNAKAVVGDKRVHGREQVQHMMQQFQDRIDHMEIRSVRVHNGRIEVDATFIFNGQSVRVIFHITVHNGRIQEIHVQATNEKVKHQLRKFLS | 1.07
DEEVVKLLLELMKAWRTGDRDKAVKLMDPNVEIQVGDTYIHGREQNREEIKRIKDEIRWELSVKSYNQHNGQARIDADVTINVDGHPTHYRVDIRAEATNGEVKKITYNVPEEVLEEVKR | 0.026
DEDAVRRVKDMIRNLKSGNPDDAARYADPNARFDIGDWHIDGRKQLVKKLRDITRHMRYKFEMRSVDVTGNKLKFKATAHVSVNGRPITYHMTASIIVHNGHVTHVDQQLPEELLKRIEQ | 0.785

Sequence | protease stability score
DEDDANRVAQEILRALIEGDEKKVADLVDEDARISIGDHKFRGREQIREAVREFTEEVDHVKLESITADNGHAEATAILDINGKNQRVTFHVEVHNGRAKEVSMTSG | 1.05
DEEDLKEFVKILKEGDPEKLKKMVDENVTIEIGDKRVSGKEKARDLAENFRERVDSHHIHRVDIEGERMVVDVEVSVNGRRIRYTLFAEVHNGKLKQQSVQYTSEEQRKLLTEMWT | 0.3
DEKFKEAVERFIKALQDNNHKEMKDNADPNVKAQVGDSEVHGMDEMLRQLYKRYQELRVSYKHLSITVRGDKVEIRASVKLVHNGTPTEREVSVEVEAKNGRIKSMRINNTK | 0.493
DEEEVKKQLEKLVKMLVKGNKDEIKKFLDPDVEYKVVDEDFQGQQVAEHAYKKIKKVGARMEVKEVRVEGDTAKATYEFTAGGTTVRAEIEAEVHGGRVKHWQVDLDDTAKELIKKG | 0.266
DNENVNHVKTWFQNIQENNPDELIKLIDKDARLRVGDKEFHGREQAKKEIEKRIRHIELEFKHVQVDHHNGRVVAHAVYTQNRNGRPKKVNVRYVFQIHNGKIKRAEQDEDG | 0.263
DEEHWRKIAEDFMHALRTGDPRTLRKLMDEDVQYVYGDQRVTGHEEAANRFHELRQKVDHVTVKHIEVQGNKVVIDVVMQVNGKEARMTIVIVFENGRAKVLTFDPEQIKKLEG | 1.23
DEELAKIVLRLLQAEENGDERTLQENADPNVTINVGEKRIRGMETYAKEVTERRKRMRVEVDVKDYRNHGEHVVIVNTRLNESNGKPHRNRMQFVIHAHNGRITKISDNTDS | -0.009
DEERMHRLKKLFDTNDNEQMSKQASENARMQVGNKVFHGREDIEKFILEERRRADHITYKHVTEHGNKVQAHVVKVVNGRSIDVIFEVEIDNGRIKRMSIQARDSEDQNKAEKALS | 0.345
DEEFLRLIEEFWRAVKQNDEERLKHLLDENAKVKVGDKRLRGHEQVAKSIVDDQREMRIEMRIHKVEVDGNKVDVTYVVVFNVNGRPVSDSVRVIFRAKNGRIQMIEVRVDPDSAREQKS | 1.37
DEHAERIFRKWMTIYKKGDPKKVKELLDPNARVRIGDKRIRGRETAAEQQSTRADEMRNDVKVKHLEVNGDDLVVRIKFTSEENGNPKDQEAKFDWNIHNGKIRSQTQDIKG | -0.017
DDDKRANQFFRDMLRVFKNNNEKEAEKLFPPDANQNVGEERVHGREQFRKEFVDDARNVDHWEARIVDLDVKNGRIVIRFEFVKDVNGRKNKDVRTLTVVNHNGRLVIERVNSG | 0.882
DHKEARDVAQTMMHLLKHGDFEQIVRNADPNAHFVVGDKEYHGRDNLRKVLKRLHDQVDHISFRTYKVDEDTAKLDATVQINGRNYRMDVLVHFHNGRIKDLNIKVTDEDTQREADK | 2.08
EEDILKRVKHMLKQLETGNEKEYEKNIDPNVKIKVGDKEIRGREEASRYWHRLRHHMRIRVDVKSMNVKNGQVNMNATVTVDVNGRPVRFEFRMVIHATNGTIKEVTLQVDPDQIRKQLG | 1.61
DETAVKVIHKVVEAINTNNPKQVMKNMDKDVHITVGDKEYEGKEEFAKQVERDLREQRVDIDIKRLNVHNGKVHVKFTAQQQINGKPISYKATARAEVQNGKVQHMEIRVPEELQRKRES | -0.272
DEDQAQKLIDKMTEAMFKNDEETIRKVGKEDVEVKNADEEYKGVDTIVDLARKYKEQGIEFHLEQVHKEGDQVKFTAVVHVADRTVKVEVKYKADNGHVERTEVEWSQEVKKAFQQH | 0.97
DEEALEILRDAWEALRTGDHEKLRELFDKNANVRIGEKRFEGSDEIMRDWLTTIRNIRFHIHDIKFTVNGDKAVVRVNVNFEHNGKPQSDVYRMSAEADNGRIKSADADRDK | 0.391
DDQDIRHILDQWRTGDFDQVRNQADENANIVYGDKRYHGREQLQEWMKTLKEQIDHFHIRSITQKGDKARFEAEADVNGVDVKFSVVISVHNGRVKFFEFQWTSEELLERIKHEIG | 0.942
DEEAQKLLDMLRKAEQTGDEDRVRQLADEDVKVRIGDKVIHGREEWARHVRRERNEMRFKIQDLKVDVQGDHLSVKYTAHRDHNGQPQSDTYHYTLQMHNGRIKHLNVTEEK | -0.004

From the NTF2 design screens of Basanta et al. (2020)
